Assays:
[1] = tested on: MCD mouse model of liver fibrosis; experiment: Methionine-choline deficient (MCD) mouse model of liver fibrosis; format: in vivo
From the text: To further investigate the ability of GAL3-TIM3 blocking antibodies to influence liver fibrosis, the methionine-choline deficient (MCD) mouse model of liver fibrosis was employed. Briefly, Six-week-old male C57Bl/6 mice (Jackson Laboratory) were fed either a normal diet (Envigo, #2020X; n=5 mice); or MCD diet (Fisher Scientific, #MP296043910, n=25) for 8 weeks and continuously through the remainder of the study. Mice were divided into three groups (7 mice each) and randomized based on ALT score. Group 1 and 2 were treated mouse anti-mIgG2aLala isotype control (mISO, 10 mg/kg) or mouse anti-Gal3 antibody (mIMT001, 10 mg/kg) twice a week of IP injection for 4 weeks, at which time animals were sacrificed and liver specimens were collected, fixed in 4% paraformaldehyde (Electron Microscopy Sciences, Cat #15710S) for 24 hours, transferred to 70% EtOH for 72 hours, and samples were subsequently embedded in paraffin. […] Brightfield images were acquired under a Revolve microscope (Discover Echo, Inc.).
To assess fibrosis in these specimens, tissue sections were evaluated for the deposition of fibrotic collagen deposits by picosirius red staining. Briefly, after deparaffinization, liver specimens from isotype control- or IMT001-treated MCD mice were rehydrated in serial ethanol baths, sections were stained in 0.01% Fast green FCF Solution (Cat #1.04022.0025 MilliporeSigma) in saturated picric aqueous solution for 15 minutes at room temperature, followed by 1 h incubation at room temperature in 0.04% Fast green FCF/0.1% Sirius red in saturated picric aqueous solution, prior to their dehydration, clearing and mounting. Images were quantitated using ImageJ software (Rasband, W. S., ImageJ, U. S. National Institutes of Health, Bethesda, Md., USA, world wide web.imagej.nih.gov/ij/)

[2] = target: T1, interaction between Gal3 and TIM-3 (Mus musculus, UniProt P16110); experiment: Blocking ELISA, mouse Gal3 coated plate and mouse TIM-3 Fc; format: binding; settings: mGal3 coated plate, mouse TIM-3 Fc
T1 construct: purchased BioLegend (mouse Gal3); R&D systems (mouse TIM-3 Fc)
Experimental: ELISA assays were also performed to test the interaction between Gal3 and TIM-3. 96 well ELISA plates (ThermoFisher Scientific) were coated with mouse Gal3 protein (BioLegend, San Diego, Calif.) in PBS or human Gal9 protein (R&D systems) in PBS or phosphatidylserine (PS) (Sigma) in ethanol and incubated at 4° C. for overnight. The plate was washed three times with TBST and then blocked with PBS buffer containing 2% BSA at room temperature for 1 hour. In FIG. 5A, different anti Gal3 antibodies, i.e. mGal3 polyclonal antibody (R&D systems), mAb IMT001 (also described in WO 2019/023247, hereby expressly incorporated by reference in its entirety), mAb M3/38 (Thermofisher Scientific) (FIG. 5A), were added to well that has been coated with Gal3. The antibodies were incubated for 10 minutes and mouse TIM-3 Fc were then added to the plates and incubated for an additional one-hour incubation. Plates were then washed for three times and followed by incubation with anti-human-IgG-HRP (Jackson ImmunoResearch) for 1 h at room temperature. The color was developed with TMB subtract (GeneTex, Irvine, Calif.) after three time washes with TBST and the reaction was terminated with 1N HCl. The optical density (OD) was read at 450 nm. The results were expressed as the average OD of duplicates±SD. […]

[3] = target: T2, association of GAL3 and TIM3 (Homo sapiens, UniProt P17931); experiment: GAL3-TIM3 blocking ELISA (Examples 24, 27); format: binding; settings: 3 ug/mL antibody
T2 construct: full-length human Galectin-3 protein (Acro Biosystems, GA3-H5129); linker-spaced 6-histidine tag; purchased Acro Biosystems GA3-H5129 (Gal3); TM3-H5229 (TIM-3)
Experimental: Positively scoring wells were evaluated for the ability to block association of GAL3 and TIM3. To identify GAL3-targeted antibodies with the ability to block the interaction of GAL3 and TIM3, purified GAL3 and TIM3 proteins were incubated in the presence of GAL3-immunization hybridoma supernatants described above, or without antibody, and protein interaction was evaluated by ELISA. Human Galectin-3 protein (Acro Biosystems, GA3-H5129) was diluted in PBS (Corning, 21-030-CM) to a concentration of 3 μg/ml and added to the wells of a 96-well ELISA plate (Thermo Fisher, 44-2404-21). After incubating the plate at 4° C. overnight, the plate was washed three times with PBST (PBS with 0.05% Tween 20 [VWR, 0777]). The plate was then blocked for an hour with 2% BSA (EMD Millipore, 126609) in PBST at room temperature with gentle rocking. Thereafter, the 2% BSA in PBST was discarded and antibody or inhibitor (3-fold dilutions beginning at 20 μg/ml, 60 μg/ml, or 180 μM) in 2% BSA in PBST was added to the wells. Afterwards, 2 μg/ml of human TIM3 (Aero Biosystems, TM3-H5229) in 2% BSA in PBST was added to the antibody or inhibitor in the wells in a 1:1 ratio. The plate was incubated for an hour at room temperature with gentle rocking. Thereafter, the plate was washed three times with PBST, and 0.3 μg/ml of human TIM3 Biotinylated Antibody (R&D Systems, BAF2365) in 2% BSA in PBST was added to the wells. The plate was incubated for an hour with gentle rocking and then washed three times with PBST. Avidin-HRP (1:2000) was then added to the wells. The plate was incubated at room temperature for an hour with gentle rocking and then washed three times with PBST. TMB substrate (Thermo Scientific, 34029) was then added to each well. The reaction was stopped with 1M HCl (JT Baker, 5620-02) and read using a plate reader (Molecular Devices) at absorbance of 450 nm.

[4] = 10 mg/kg twice a week IP for 4 weeks

T1 sequence (P16110 2-264 limits assumed): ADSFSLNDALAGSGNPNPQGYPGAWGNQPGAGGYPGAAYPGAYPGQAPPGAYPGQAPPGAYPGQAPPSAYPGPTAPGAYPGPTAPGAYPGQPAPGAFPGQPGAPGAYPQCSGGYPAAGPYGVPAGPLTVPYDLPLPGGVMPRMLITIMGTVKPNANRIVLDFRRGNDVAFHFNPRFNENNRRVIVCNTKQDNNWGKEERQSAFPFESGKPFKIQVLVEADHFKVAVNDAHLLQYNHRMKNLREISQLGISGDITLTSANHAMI
T2 sequence (P17931 2-250 limits assumed): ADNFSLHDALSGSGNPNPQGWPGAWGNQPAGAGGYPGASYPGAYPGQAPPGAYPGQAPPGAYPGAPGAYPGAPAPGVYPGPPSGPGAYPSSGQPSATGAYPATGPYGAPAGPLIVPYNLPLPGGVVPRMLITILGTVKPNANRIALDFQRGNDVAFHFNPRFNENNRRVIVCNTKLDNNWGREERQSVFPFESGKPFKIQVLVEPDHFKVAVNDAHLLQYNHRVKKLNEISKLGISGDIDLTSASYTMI

B1: IMT001: anti-Gal3 monoclonal antibody (Immutics); printed as mIMT001 (IMT001), murine (antibody, V domains shown)
VH: QIQLVQSGPELKKPGETVKISCKASGYTFTNYGMNWVKQAPGKGLKWMGWINTNTGEPTYVEEFKGRFAFSLETSASTAYLQINNLKNEDTATYFCAPYDNFFAYWGQGTLVTVSA
VL: DIVITQDELSNPVTSGESVSISCRSSKSLLYKDGKTYLNWFLQRPGQSPQLLIYLMSTHASGVSDRFSGSGSGTDFTLEISRVKAEDVGVYYCQQLVDYPLTFGAGTKLELK
apoptotic ballooning cells, image-based quantification [1, 4]: 0.98 | infiltrating lobular immune cells, image-based quantification [1, 4]: 0.73 | steatosis, image-based quantification [1, 4]: 1 | NAS score ([1]; integrated score): 2.72 | picosirius red staining, % of the tissue area ([1]; liver sections): 1.25% | reduction of ballooning ([1]; vs control-treated): 27% | reduction of lobular immune cells ([1]; vs control-treated): 59% | reduction of steatosis ([1]; vs control-treated): 15% | reduction of NAS score ([1]; vs isotype control): 43% | reduction of picosirius red staining ([1]; vs isotype control): 71% | block of Gal3 binding to TIM-3 [2]: blocked | GAL3-TIM3 Blocking @ 3 ug/mL [3]: 80%

Source: US20220380473A1, “ANTI-GAL3 ANTIBODIES AND USES THEREOF” (TrueBinding, Inc., priority 2019, published 2022)
